The numbers were not newly measured in paper PMC7488126, which cites them from elsewhere.

Targets include CD48 (Homo sapiens) (UniProt P09326); CD155 (Homo sapiens) (UniProt P15151); CD112 (Homo sapiens) (UniProt Q92692); B7H6 (Homo sapiens) (UniProt Q68D85).
UniProt P15151, sequence (P15151 21-343): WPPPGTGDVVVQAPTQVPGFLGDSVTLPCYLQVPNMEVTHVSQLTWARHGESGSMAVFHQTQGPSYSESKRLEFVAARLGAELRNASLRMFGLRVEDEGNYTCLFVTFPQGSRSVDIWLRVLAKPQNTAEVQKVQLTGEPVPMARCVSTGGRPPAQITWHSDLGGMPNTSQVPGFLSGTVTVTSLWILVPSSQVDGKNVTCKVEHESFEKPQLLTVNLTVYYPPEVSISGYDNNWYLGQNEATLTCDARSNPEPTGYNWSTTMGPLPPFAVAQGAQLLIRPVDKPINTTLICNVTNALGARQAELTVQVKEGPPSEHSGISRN
UniProt Q92692, sequence (Q92692 32-360): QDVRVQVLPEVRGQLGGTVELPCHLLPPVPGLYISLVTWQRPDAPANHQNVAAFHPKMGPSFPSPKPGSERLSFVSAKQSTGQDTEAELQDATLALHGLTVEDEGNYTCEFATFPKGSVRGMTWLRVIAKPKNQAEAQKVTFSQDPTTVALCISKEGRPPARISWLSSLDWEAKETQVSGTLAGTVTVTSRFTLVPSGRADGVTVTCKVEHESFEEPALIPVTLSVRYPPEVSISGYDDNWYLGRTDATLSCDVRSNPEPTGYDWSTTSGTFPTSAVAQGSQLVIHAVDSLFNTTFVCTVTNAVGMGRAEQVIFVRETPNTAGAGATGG
UniProt P09326, sequence (P09326 27-220): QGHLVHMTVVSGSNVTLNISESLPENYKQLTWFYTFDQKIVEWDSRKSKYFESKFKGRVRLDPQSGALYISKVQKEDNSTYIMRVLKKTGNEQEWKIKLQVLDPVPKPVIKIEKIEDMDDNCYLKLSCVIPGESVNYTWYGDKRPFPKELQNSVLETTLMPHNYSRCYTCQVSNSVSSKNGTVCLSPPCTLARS
UniProt Q68D85, sequence (Q68D85 25-262): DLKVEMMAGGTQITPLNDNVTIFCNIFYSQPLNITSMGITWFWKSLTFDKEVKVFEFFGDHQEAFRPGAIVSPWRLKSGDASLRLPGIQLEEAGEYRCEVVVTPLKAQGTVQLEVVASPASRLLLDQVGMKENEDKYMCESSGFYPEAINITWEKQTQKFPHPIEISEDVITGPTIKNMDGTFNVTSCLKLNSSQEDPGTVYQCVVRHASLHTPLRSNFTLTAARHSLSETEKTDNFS

As for 2B4 ECD (from UniProt Q9BZW8), the Kd with CD48 (Homo sapiens) was 8000 nM. For the substance DNAM-1 (from UniProt Q15762), the Kd in the data set with CD155 (Homo sapiens) is 230 nM; with CD112 (Homo sapiens) it was 310 nM. For the substance “NKp30 Ig variable domain (from UniProt O14931)”, the Kd with B7H6 (Homo sapiens) is 1000 nM.

For orientation: Kd means the equilibrium constant for the complex coming apart.
